Results on 1 molecule are retold here after patent US10428093B2, “Lipid co-factor essential for cell density signaling” (priority 2013, dated 2019).

The subject of this assay is U2OS cells. The assay can be described thus: Growth of U2OS cells after adding concentrated conditioned media or free protein factor. It counts as cell-based, human. The note with it: free factor expressed in E. coli added at 5 μg/ml, after a week (6 days), vs control. As for the experimental part:
FIGS. 13A-F—The cofactor has a unique lipid makeup depending on the producing cell type but would SNZR 1P1L and SNZR 1P2L give the same or different response if added to the same cell type. In this case we used the control cell line U2OS and added a 5× concentrated condition medium from PAT cells or from U2OS-pESY1c cells. An additional test was done to see if the free factor made in E. coli had any activity on U2OS cells if applied at a high concentration (5 μg/ml).
To answer these questions, U2OS cells were grown in regular media as a control, or with 5× concentrated condition media from U2OS-pESY1c cells expressing the SNZR 1P1L, and from 5× concentrated condition media from PAT cells expressing SNZR 1P2L. In addition, SNZR 1P purified from E. coli, was added at 5 μg/ml—3 orders of magnitude greater than the estimated level in CM (FIG. 13a,b,c,d). […] The high level of the protein factor was chosen because it seemed unlikely that the factor without the cofactor would have a lot of activity and small amounts of activity are difficult to detect by visualization.
U2OS cells were grown in F12/DMEM medium with 0.2% fetal bovine serum. In 75 cm^2 flasks the medium, […], was changed every other day. When the cells first overgrow the monolayer, they are very sensitive to medium volume and will apoptose if too much medium is added.
CM was produced by growing cells in 225 cm^2 flasks. […]

B1: SNZR 1P: secreted 94 AA cell density signal protein factor (chicken, SEQ ID NO:3; tagged form SEQ ID NO:13) (protein, listed as Gallus gallus)
chain: EPLAVVDLRPQSSVKVEVHFQDKVEEMSIRLDQTVAELKKHLKTVVQLSTSNMLLFYLDQEAPFGPEEMKYSSRALHSYGIRDGDKIYVEPRMK
For the molecule B1, the “Effect on growth of U2OS cells” value is “did not appear to change the cultures”. Moreover, the “Effect on growth of U2OS cells” value (listed as secreted form of the factor) is on record as “did not appear to increase growth”.
